Twelve molecules from patent US20230025129A1 (KYMAB, published 2023) can be followed below.

The labels stand for the following.
T1: human matriptase-2 ECD protein his tag (human, UniProt Q8IU80 78-811)
T1 sequence: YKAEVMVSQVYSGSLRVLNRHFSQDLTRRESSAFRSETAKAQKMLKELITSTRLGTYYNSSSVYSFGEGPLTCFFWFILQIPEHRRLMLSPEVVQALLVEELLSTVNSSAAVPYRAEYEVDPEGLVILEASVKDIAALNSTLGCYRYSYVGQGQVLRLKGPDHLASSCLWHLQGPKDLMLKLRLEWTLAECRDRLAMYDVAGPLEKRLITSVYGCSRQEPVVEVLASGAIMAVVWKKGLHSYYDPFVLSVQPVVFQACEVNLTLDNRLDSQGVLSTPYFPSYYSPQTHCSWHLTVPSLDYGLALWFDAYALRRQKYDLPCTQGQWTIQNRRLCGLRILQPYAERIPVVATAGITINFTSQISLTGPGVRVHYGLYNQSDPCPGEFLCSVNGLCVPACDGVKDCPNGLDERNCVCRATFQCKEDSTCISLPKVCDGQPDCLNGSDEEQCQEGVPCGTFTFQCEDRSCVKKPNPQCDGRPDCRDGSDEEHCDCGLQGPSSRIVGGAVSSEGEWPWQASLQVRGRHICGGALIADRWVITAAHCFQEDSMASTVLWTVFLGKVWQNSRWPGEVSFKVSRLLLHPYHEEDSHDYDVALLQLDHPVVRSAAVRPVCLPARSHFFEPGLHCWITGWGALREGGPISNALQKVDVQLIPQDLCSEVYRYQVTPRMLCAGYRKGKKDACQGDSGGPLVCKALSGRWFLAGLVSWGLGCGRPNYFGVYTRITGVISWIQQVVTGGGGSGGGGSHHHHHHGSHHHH

T2: mouse matriptase-2 ECD protein his tag (mouse, UniProt Q9DBI0 80-811)
T2 sequence: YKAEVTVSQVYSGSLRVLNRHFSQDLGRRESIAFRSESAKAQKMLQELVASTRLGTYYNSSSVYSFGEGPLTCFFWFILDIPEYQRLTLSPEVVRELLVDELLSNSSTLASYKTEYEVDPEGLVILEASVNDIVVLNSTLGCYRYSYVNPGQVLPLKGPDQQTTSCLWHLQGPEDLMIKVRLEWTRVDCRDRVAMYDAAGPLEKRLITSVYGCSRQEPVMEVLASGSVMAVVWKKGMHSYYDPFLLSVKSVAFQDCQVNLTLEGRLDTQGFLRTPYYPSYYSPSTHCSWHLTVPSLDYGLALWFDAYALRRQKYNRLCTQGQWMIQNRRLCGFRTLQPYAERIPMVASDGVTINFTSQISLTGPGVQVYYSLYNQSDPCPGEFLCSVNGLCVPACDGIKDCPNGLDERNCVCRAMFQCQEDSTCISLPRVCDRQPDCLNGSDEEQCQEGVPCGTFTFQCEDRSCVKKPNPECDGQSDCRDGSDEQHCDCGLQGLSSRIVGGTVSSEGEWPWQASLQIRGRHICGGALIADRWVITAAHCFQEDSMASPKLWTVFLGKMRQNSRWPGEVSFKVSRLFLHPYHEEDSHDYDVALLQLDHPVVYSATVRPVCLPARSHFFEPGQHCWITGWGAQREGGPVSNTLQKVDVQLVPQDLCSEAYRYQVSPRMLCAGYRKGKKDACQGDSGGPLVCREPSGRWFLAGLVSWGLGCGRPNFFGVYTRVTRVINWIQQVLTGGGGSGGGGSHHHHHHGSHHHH

T3: human MTP-2 expressed on HEK293 cells (human, UniProt Q8IU80 1-811)
T3 sequence: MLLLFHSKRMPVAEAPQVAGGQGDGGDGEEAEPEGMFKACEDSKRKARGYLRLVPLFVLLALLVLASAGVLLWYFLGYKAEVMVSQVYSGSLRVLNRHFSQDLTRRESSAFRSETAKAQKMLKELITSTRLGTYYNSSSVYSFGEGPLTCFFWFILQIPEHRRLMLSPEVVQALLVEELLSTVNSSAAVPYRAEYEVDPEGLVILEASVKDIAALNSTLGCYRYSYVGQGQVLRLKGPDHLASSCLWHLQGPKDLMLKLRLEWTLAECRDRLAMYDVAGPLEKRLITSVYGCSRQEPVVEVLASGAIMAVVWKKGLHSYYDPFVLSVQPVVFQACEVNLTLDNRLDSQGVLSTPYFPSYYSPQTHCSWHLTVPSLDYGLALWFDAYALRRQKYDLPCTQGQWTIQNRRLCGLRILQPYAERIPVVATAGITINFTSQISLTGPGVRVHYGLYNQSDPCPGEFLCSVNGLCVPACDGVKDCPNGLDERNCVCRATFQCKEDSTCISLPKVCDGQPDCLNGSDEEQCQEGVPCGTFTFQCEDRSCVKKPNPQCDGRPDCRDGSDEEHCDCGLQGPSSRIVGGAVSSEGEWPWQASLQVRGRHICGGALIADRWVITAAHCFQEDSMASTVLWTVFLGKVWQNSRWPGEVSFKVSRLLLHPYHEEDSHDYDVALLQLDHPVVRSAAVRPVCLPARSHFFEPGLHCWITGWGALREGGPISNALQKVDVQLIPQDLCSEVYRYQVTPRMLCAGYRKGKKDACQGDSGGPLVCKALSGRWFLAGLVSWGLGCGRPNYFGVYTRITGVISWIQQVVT

B1: NORI-017 (antibody, human IgG4 S228P, lambda, V domains shown)
VH: QVHLVESGGAVVQPGRSLRLSCAASGFTFSNFDMHWVRQTPGKGLEWVTIIRYDETNIYYTESVKGRFTTSRDNSKNTLYLQMNSLRVEDTAVYYCARGWTGSYVFDYWGQGALVTVSS
VL: QSVLTQPPSVSEAPRQRVTISCSGGSSNIGNNAVNWYQQVPGKAPKLLIHYDDLLPSGVSDRFSGSKSGTSASLAISGLQSEDEADYYCAAWDDSLNGVVFGGGTKLTVLG
B2: NORI-019 (antibody, human IgG4 S228P, lambda, V domains shown)
VH: QVQLVESGGGVVQPGRSLRLSCAASGFTFSNFDMHWVRQAPGKGLEWVAIISYDGSDKYYEDSVKGRFTISRDNSKNTLYLQMNSLRAEDTAIYYCAKDGYGSSLFDHWGQGTLVTVSS
VL: B1 VL with G25S, Y37F, V40L, K43E, A44V, H50Y, A91V, V100L
B3: NORI-021 (antibody, human IgG4 S228P, lambda, V domains shown)
VH: QVQLVESGGGLVKPGGSLRLSCAAFGFTFSDYYMGWIRQAPGKGLEWVSHISSSGRTRYYADSVKGRFTISRDNAKNALYLQMDSLRAEDTAVFYCARAQLRYFDWLDYWGQGTLVTVSS
VL: QSVLTQPPSVSAAPGQKVTISCSGSGSNIGNNYVSWYQQVPGTAPKLLIYDNNKRPSGIPDRFSGSKSGTSATLGITGLQTGDEADYYCGTWDSSLSAGVFGGGTKLTVLG
B4: NORI-005 (antibody, human IgG4 S228P, kappa, V domains shown)
VH: EVHLVESGGGLIKPGRSLRLSCTGSGFTFGDFGLSWFRQAPGKGLEWISFIRSKPYGGTTDYAASVKGRFTISRDDSKSVAYLQMNSLKTEDSAVYYCARNEILTGYYIFDYWGQGILVTVSS
VL: DIQMTQSPSSLSASLGDRLTITCQASQDISNYLSWYQLQPGKAPKLLIFDASILETGVPSRFSGSGSGTDFSFTVSSLQPEDIATYYCQQYDNLPLTFGGGTKVDLKR
B5: NORI-020 (antibody, human IgG4 S228P, lambda, V domains shown)
VH: QLQLQESGPGLVKPAETLSLMCTVSGDSISSSHYFWGWIRQPPGKGLEWIGSMYYSGSTYYNPSLKSRVTISVDTSNNQFSLKLRSVTAADTAVYYCVRHNNWGLDNYFDYWGQGTLVTVSS
VL: SYELTQPPSVSVSPGQTARITCSADALPDQYAYWYQQKPGQAPLLVIYKDSERPSGIPERFSGSSSGTIVTLTIRGVQAEDEADYYCQSADSSGSYAVFGGGTKLTVLG
B6: NORI-018 (antibody, human IgG4 S228P, lambda, V domains shown)
VH: QLQLVQSGAEVKKPGASVKVSCKASGYTFTTFGIVWVRQAPGQGLEWMGWISGYNGNTKYAQNLQGRVTMTTDTSTSTAYMELRSLRSDDTAIYYCARDRAIAPRFDPWGQGTLVTVSS
VL: SYELTQPPSVSVSPGQAASIPCSGDNLGDNFACWYQQKPGQSPVLVIYQDSKRPSGIPERFSGSNSGNTATLTINGTQAMDEADYYCQAWDSSTVVFGGGTKLTVLG
B7: NORI-015 (antibody, human IgG4 S228P, lambda, V domains shown)
VH: EVQLVESGGGLIQAGRSLRLSCAASGFTFDEHVIYWVRQIPGKGLEWISSISWKSDIIAYADSVKGRFTISRDNAKNALYLQMNSLRAEDTALYYCAREKDGDFYYYYFAMDVWGQGTTVTVSS
VL: QSALTQPPSASGSPGQSVTISCTGTSSNVGYYNYVSWYQQHPGKAPKLMIYEVNKRPSGVPDRFSGSKSANTASLTVSGLQADDEADYYCSSYAGSNKVVFGGGTKLTVLG
B8: NORI-016 (antibody, human IgG4 S228P, lambda, V domains shown)
VH: B7 VH with I34M, S52T
VL: B7 VL
B9: NORI-007 (antibody, human IgG4 S228P, kappa, V domains shown)
VH: EVQLVESGGGLVKPGRSLRLSCTGSGFTFGDFGMSWFRQAPGKGLEWVCFIRSKPYGGTTDYAPSVKGRFTISRDDSISIAYLQMNSLTTEDTAVYYCSRNDILTGYYIFDYWGQGTQVTVSS
VL: DIQMTQSPSSLSASLGDSITITCQASQDITNYLIWYQHKPGKAPKLLIFDASNLETGVPSRFSGSGSGTDFTFTISSLQPEDYATYYCQQYYNLPLTFGGGTKVDIKR
B10: NORI-002 (antibody, human IgG4 S228P, kappa, V domains shown)
VH: B9 VH with K67R, T71S, I78K, S79G, A81V, T89R, D102E, Q118L
VL: B9 VL with S18R, I19V, Q27H, H38Q, K45R, N53I, Y83F
B11: NORI-004 (antibody, human IgG4 S228P, kappa, V domains shown)
VH: B9 VH with G68D, I78K, S79D, A81V, T89R, D102E, Q118L
VL: B9 VL with S18R, I19V, Q27H, H38Q, K45R, N53I, Y83F
B12: NORI-001 (antibody, human IgG4 S228P, kappa, V domains shown)
VH: QVQLVQSGAEVKKPGASVKVSCKVSGYTLSEFSIHWVRQAPGKGLEWMGGFDPEKGKTIYAQKFQGRVTMTEDTSTDTAYMDLSSLRSEDTAVYYCVTEGHFYGSGVFDFWGQGTLVTVSS
VL: DIQMTQSPSSLSASVGDRVTITCRPSQGLRFDFGWYQQRPGKAPRRLIYAASILQSGVPSRFSGSGSGTEFTLTISSLQPEDFATYYCLQHNNYPWTFGQGTKVEIKR

Where a chain is given by its changes, count along the chain named.

The first test concerns the target T1, human matriptase-2 ECD protein his tag. As to the kind of experiment: cell-based or functional assay.
Turning to B1, the “Inhibition enzymatic activity human MTP2 protein (IC50)” value was found to be 1.51 nM.

B2: the “Inhibition enzymatic activity human MTP2 protein (IC50)” value was 1.54 nM.

Take B3: the “Inhibition enzymatic activity human MTP2 protein (IC50)” value came out at 2.71 nM.

Take B4: the “Inhibition enzymatic activity human MTP2 protein (IC50)” value was found to be 5.95 nM.

As for B5, the “Inhibition enzymatic activity human MTP2 protein (IC50)” value was determined as 1.72 nM.

On to B6, for which the “Inhibition enzymatic activity human MTP2 protein (IC50)” value came out at 2.12 nM.

For the molecule B7, the “Inhibition enzymatic activity human MTP2 protein (IC50)” value was 5.51 nM.

For the molecule B8, the “Inhibition enzymatic activity human MTP2 protein (IC50)” value was 10.4 nM.

Take B9: the “Inhibition enzymatic activity human MTP2 protein (IC50)” value came out at 8.79 nM.

For B10, the “Inhibition enzymatic activity human MTP2 protein (IC50)” value was determined as 8.53 nM.

As for B11, the “Inhibition enzymatic activity human MTP2 protein (IC50)” value was found to be 5.9 nM.

As to B12, the “Inhibition enzymatic activity human MTP2 protein (IC50)” value was 10.1 nM.

The target in another test is T2, mouse matriptase-2 ECD protein his tag. As to the kind of experiment: cell-based or functional assay.
Turning to B1, the “Inhibition enzymatic activity mouse MTP2 protein (IC50)” value amounted to 0.489 nM.

Regarding B2, the “Inhibition enzymatic activity mouse MTP2 protein (IC50)” value came to 0.911 nM.

In the case of B3, the “Inhibition enzymatic activity mouse MTP2 protein (IC50)” value amounted to 1.9 nM.

Take B4: the “Inhibition enzymatic activity mouse MTP2 protein (IC50)” value came out at 12.7 nM.

Regarding B5, the “Inhibition enzymatic activity mouse MTP2 protein (IC50)” value was determined as 1.44 nM.

Regarding B6, the “Inhibition enzymatic activity mouse MTP2 protein (IC50)” value came to 0.589 nM.

As to B7, the “Inhibition enzymatic activity mouse MTP2 protein (IC50)” value worked out at 5.7 nM.

B8: the “Inhibition enzymatic activity mouse MTP2 protein (IC50)” value came to 9.27 nM.

Consider B9, for which the “Inhibition enzymatic activity mouse MTP2 protein (IC50)” value came to 39.3 nM.

In the case of B10, the “Inhibition enzymatic activity mouse MTP2 protein (IC50)” value worked out at 16.2 nM.

In the case of B11, the “Inhibition enzymatic activity mouse MTP2 protein (IC50)” value was found to be 22.4 nM.

In the case of B12, the “Inhibition enzymatic activity mouse MTP2 protein (IC50)” value amounted to 12.4 nM.

In the next test the target is T3, human MTP-2 expressed on HEK293 cells. Nature of the test: cell-based or functional assay.
Consider B1, for which the “Inhibition enzymatic activity human MTP2 on cells (IC50)” value was found to be 0.198 nM.

For B2, the “Inhibition enzymatic activity human MTP2 on cells (IC50)” value was 0.0978 nM.

On to B3, for which the “Inhibition enzymatic activity human MTP2 on cells (IC50)” value was determined as 8.21 nM.

On to B5, for which the “Inhibition enzymatic activity human MTP2 on cells (IC50)” value worked out at 0.146 nM.

For B6, the “Inhibition enzymatic activity human MTP2 on cells (IC50)” value came to 2.22 nM.
